Values joined by “and” are separate entries in the source; they are usually repeats but may differ in a detail not shown here. Identical values can stand only once. Like-named read-outs stand apart in the source and are kept apart here. Bridge positions count the residues as written; N and C are the ends.
How the values were obtained:
[1] = molecular target: T1, soluble human FcRn (shFcRn) (human, UniProt P55899 24-297; P61769 21-119); assay: SPR (Biacore), immobilized shFcRn, pH 6, fit 'ss'
T1 construct: For crystallography it was expressed in CHOK1SV cells and deglycosylated with PNGaseF; biotinylated for phage selection; also called hFcRn/β2m; FcRn-biotin

[2] = molecular target: T1, soluble human FcRn (shFcRn); assay: SPR (Biacore), immobilized shFcRn, pH 6
[3] = molecular target: T1, soluble human FcRn (shFcRn); assay: SPR (Biacore), immobilized shFcRn, pH 7.4
[4] = molecular target: T1, soluble human FcRn (shFcRn); assay: SPR (Biacore), Kd pH 7.4 divided by Kd pH 6.0
[5] = molecular target: T1, soluble human FcRn (shFcRn); assay: SPR (Biacore), immobilized shFcRn, pH 6, 2 site fit
[6] = molecular target: T1, soluble human FcRn (shFcRn); assay: SPR (Biacore), immobilized shFcRn, pH 6, steady-state fit
[7] = molecular target: T1, soluble human FcRn (shFcRn); assay: SPR (Biacore), immobilized shFcRn, pH 6; data fit column: aggregates/non specific
[8] = molecular target: T1, soluble human FcRn (shFcRn); assay: phage display hit; X-ray crystallography
[9] = molecular target: T1, soluble human FcRn (shFcRn); assay: SPR (Biacore), pH 6.0
Description: (§1) SPR analyses: SPR analyses were conducted using a Biacore 3000 or T100 instrument. Research-grade CMS sensor chips and all coupling reagents for immobilization were purchased from Biacore. All proteins were cross-linked to the dextran surface of a CM5 sensor chip by standard amine coupling chemistry as recommended by Biacore. […] Binding experiments were performed at pH 6.0 or 7.4 using 50 mM phosphate, 100 mM sodium chloride and 0.01% surfactant P20. […] Bound albumin protein was then allowed to dissociate from the chip for 5 minutes with running buffer. Any remaining albumin was removed from the chip with a 60 second injection (2 cycles) of pH 8.0 Tris-HCl regeneration buffer (1 M Tris pH 8.0) at 25 μL/min flow rate. The binding responses recorded near the end of the association phase were plotted as a function of concentration. Equilibrium dissociation constants (KD), were derived from sensorgrams using the 1:1 binding model of BlAevaluation software 4.1.

[10] = molecular target: T1, soluble human FcRn (shFcRn); assay: SPR (Biacore), pH 7.4
Description: as §1

[11] = molecular target: T1, soluble human FcRn (shFcRn); assay: SPR (Biacore), immobilized shFcRn, pH 6, steady-state fit; pH 6; first of two values in the cell, marked *; immobilized shFcRn
[12] = molecular target: T1, soluble human FcRn (shFcRn); assay: SPR (Biacore), pH 6.0; pH 6.0
[13] = molecular target: T1, soluble human FcRn (shFcRn); assay: SPR (Biacore), immobilized shFcRn, pH 7.4; remark: listed apart in the source
[14] = molecular target: T1, soluble human FcRn (shFcRn); assay: SPR (Biacore), Kd pH 7.4 divided by Kd pH 6.0; remark: listed apart in the source
[15] = molecular target: T1, soluble human FcRn (shFcRn); assay: SPR (Biacore), immobilized shFcRn, pH 6, steady-state fit; remark: listed apart in the source
[16] = molecular target: T1, soluble human FcRn (shFcRn); assay: method not stated in the sentence (Example 5, description of peptides); approximate KD in the Example 5 text, pH and method not stated

T1 sequence (P55899 24-297 limits assumed, chain 1 of 2): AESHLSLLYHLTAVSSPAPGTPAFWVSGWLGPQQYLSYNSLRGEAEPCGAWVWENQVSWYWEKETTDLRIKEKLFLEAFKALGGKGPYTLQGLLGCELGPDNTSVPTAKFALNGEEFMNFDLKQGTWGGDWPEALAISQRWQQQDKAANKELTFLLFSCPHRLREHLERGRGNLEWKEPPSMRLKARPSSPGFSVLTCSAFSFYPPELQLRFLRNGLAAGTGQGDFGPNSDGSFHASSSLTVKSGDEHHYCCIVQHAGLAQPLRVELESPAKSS
T1 sequence (P61769 21-119 limits assumed, chain 2 of 2): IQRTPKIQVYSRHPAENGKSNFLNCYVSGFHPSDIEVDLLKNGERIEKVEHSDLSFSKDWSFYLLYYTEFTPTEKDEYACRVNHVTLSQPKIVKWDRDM

Binder: Ac-YATCKWDDGFSCEYV-NH2 (disulfide 4-12 (inferred)) [SYN1145]
- Kd [1]: 57000 nM

Binder: Ac-YMTCKWDDGASCEYV-NH2 (disulfide 4-12 (inferred)) [SYN1152]
- binding result [2]: no binding

Binder: Ac-YMTCKWDAGFSCEYV-NH2 (disulfide 4-12 (inferred)) [SYN1150]
- Kd [3]: 400 nM
- Kd Ratio 7.4/6.0 [4]: 2.2
- Kd [5]: 180 nM

Binder: Ac-YMACKWDDGFSCEYV-NH2 (disulfide 4-12 (inferred)) [SYN1146]
- Kd [3]: 8600 nM
- Kd Ratio 7.4/6.0 [4]: 34.4
- Kd [5]: 250 nM

Binder: Ac-YMTCAWDDGFSCEYV-NH2 (disulfide 4-12 (inferred)) [SYN1147]
- Kd [3]: 27000 nM
- Kd Ratio 7.4/6.0 [4]: 56
- Kd [5]: 470 nM
- Kd [6]: 480 nM

Binder: Ac-YMTCKWDDGFSCE-NH2 (disulfide 4-12 (inferred)) [SYN1165]
- Kd [2]: 40300 nM

Binder: Ac-VMHAFWDEEFRAEYV-NH2 [SYN1559]
- binding result [7]: no binding

Binder: YMTCKWDDGFSXEYV (N-terminal acetyl; C-terminal amide; Pen (penicillamine) at position 12) [SYN1168]
- Kd [2]: 1940 nM

Binder: Ac-AGVMHCFWDEEFKCDQGGTGGGK-NH2 (disulfide 6-14 (inferred)) [SYN514]
- binding result [8]: binds

Binder: Ac-TCKWDDGFSCEYV-NH2 (disulfide 2-10 (inferred)) [SYN1162]
- Kd [2]: 97600 nM

Binder: Ac-AGYMTCKWDDGFSCEYVGTGGGK-NH2 (disulfide 6-14 (inferred)) [SYN515]
- Kd [3]: 18000 nM
- Kd Ratio 7.4/6.0 [4]: 78
- Kd [5]: 230 nM

Binder: Ac-YMTCKWDDGFSCEY-NH2 (disulfide 4-12 (inferred)) [SYN1164]
- Kd [2]: 570 nM

B1: SYN1383 (peptide)
peptide: Ac-VMHCFWDEEFRCEYV-NH2
modifications: disulfide 4-12 (inferred)
notes: Truncated and SAR-optimized analog of SYN514
- Kd [9]: 32 nM
- Kd [10]: 1100 nM
- Kd [3]: 1100 nM
- Kd Ratio 7.4/6.0 [4]: 34
- Kd [6]: 32 nM

Binder: Ac-RYFCTKWKHGWCEEVGT-NH2 (disulfide 4-12 (inferred)) [SYN1753]
- Kd [9]: 500 nM

Binder: Ac-CKWDDGFSCEYV-NH2 (disulfide 1-9 (inferred)) [SYN1163]
- binding result [2]: no binding

Binder: Ac-VMKCWWDEEFLCRAF-NH2 (disulfide 4-12 (inferred)) [SYN1536]
- Kd [3]: 1100 nM
- Kd Ratio 7.4/6.0 [4]: 61
- Kd [6]: 18 nM
- Kd [11]: 31 nM

B2: SYN3258 (peptide)
peptide: Ac-RYFCTKWKHGWCEEVGTGGGRYFCTKWKHGWCEEVGT-NH2
modifications: disulfide 4-12, 24-32 (inferred)
notes: 37-mer, two SYN1753 units joined by GGG; also called Ac-[SYN1753]-GGG-[SYN1753]-CONH2
- Kd [9]: 3.6 nM

Binder: Ac-AGRYFCTKWKHGWCEEVGTGGGK-NH2 (disulfide 6-14 (inferred)) [SYN571]
- Kd [10]: 13100 nM
- Kd [12]: 500 nM
- Kd [13]: 13100 nM
- Kd Ratio 7.4/6.0 [14]: 29
- Kd [15]: 450 nM and 500 nM

Binder: YMTXKWDDGFSXEYV (N-terminal acetyl; C-terminal amide; Pen (penicillamine) at positions 4 and 12) [SYN1169]
- Kd [2]: 870 nM

Binder: YMTXKWDDGFSCEYV (N-terminal acetyl; C-terminal amide; Pen (penicillamine) at position 4) [SYN1167]
- Kd [2]: 2030 nM

B3: SYN1327 (peptide)
peptide: RFXTGHFGXLYPC
modifications: N-terminal acetyl; C-terminal amide; Pen (L-penicillamine) at 3; Sar (sarcosine) at 9; NMeLeu (L-N-methylleucine) at 10
- Kd [9]: 31 nM
- Kd [10]: 170 nM
- Kd [16]: ~25 nM
